Our source for the protein stability index values is the supplement of paper PMC10567573.

First the molecules themselves.
B1: TRIM14 (parent)
chain: YARTPTLDPDTMHARLRLSADRLT
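Also: lentivirally expressed fusions sorted by FACS into six bins by GFP to DsRed ratio, PSI derived from sequencing read proportions per bin multiplied by bin number.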

The variants in the series derive from B1. Put plainly: protein stability index of a GFP-peptide fusion (GPS, HEK-293T) (PSI 1-6); higher = more stable. Particulars: c terminus: a fixed tail appended.
For the variant YARTPTLDPDTMHAALRLSADRLT [R15A], the protein stability index was 2.81.

YARTPTLDPDTMHAILRLSADRLT [R15I]: the protein stability index was determined as 2.87.

On to YARTPTLDPDTMHALLRLSADRLT [R15L], for which the protein stability index worked out at 2.29.

Take YARTPTLDPDTMHAWLRLSADRLT [R15W]: the protein stability index is 1.95.

On to YARTPTLDPDTMHADLRLSADRLT [R15D], for which the protein stability index is 2.8.

YARTPTLDPDTMHAHLRLSADRLT [R15H]: the protein stability index is 2.73.

Turning to YARTPTLDPDTMHAVLRLSADRLT [R15V], the protein stability index amounted to 2.04.

On to YARTPTLDPDTMHAELRLSADRLT [R15E], for which the protein stability index amounted to 3.25.

Consider YARTPTLDPDTMHAPLRLSADRLT [R15P], for which the protein stability index turned out to be 2.83.

With YARTPTLDPDTMHAFLRLSADRLT [R15F], the protein stability index is 1.93.

As to YARTPTLDPDTMHAKLRLSADRLT [R15K], the protein stability index was 2.45.

On to YARTPTLDPDTMHAQLRLSADRLT [R15Q], for which the protein stability index was found to be 2.43.

For YARTPTLDPDTMHAMLRLSADRLT [R15M], the protein stability index came out at 2.73.

YARTPTLDPDTMHANLRLSADRLT [R15N]: the protein stability index is 2.61.

As to YARTPTLDPDTMHASLRLSADRLT [R15S], the protein stability index came to 3.53.

Take YARTPTLDPDTMHACLRLSADRLT [R15C]: the protein stability index amounted to 1.85.

Consider YARTPTLDPDTMHAGLRLSADRLT [R15G], for which the protein stability index turned out to be 3.36.

Regarding YARTPTLDPDTMHARLRLSAGRLT [D21G], the protein stability index amounted to 2.08.

Regarding YARTPTLDPDTMHARLRLSAFRLT [D21F], the protein stability index amounted to 2.34.

On to YARTPTLDPDTMHARLRLSAPRLT [D21P], for which the protein stability index was determined as 2.06.

Turning to YARTPTLDPDTMHARLRLSAWRLT [D21W], the protein stability index turned out to be 1.62.

For the variant YARTPTLDPDTMHARLRLSARRLT [D21R], the protein stability index came out at 2.02.

Regarding YARTPTLDPDTMHARLRLSAMRLT [D21M], the protein stability index came to 1.96.

For the variant YARTPTLDPDTMHARLRLSATRLT [D21T], the protein stability index was 2.61.

On to YARTPTLDPDTMHARLRLSACRLT [D21C], for which the protein stability index stood at 2.77.

Consider YARTPTLDPDTMHARLRLSAKRLT [D21K], for which the protein stability index came out at 2.06.

As for YARTPTLDPDTMHARLRLSAIRLT [D21I], the protein stability index amounted to 1.23.

On to YARTPTLDPDTMHARLRLSAARLT [D21A], for which the protein stability index was determined as 2.43.

As to YARTPTLDPDTMHARLRLSAVRLT [D21V], the protein stability index stood at 1.52.

Consider YARTPTLDPDTMHARLRLSAHRLT [D21H], for which the protein stability index amounted to 3.32.

For the variant YARTPTLDPDTMHARLRLSAQRLT [D21Q], the protein stability index was 2.91.

Take YARTPTLDPDTMHARLRLSANRLT [D21N]: the protein stability index stood at 2.54.

YARTPTLDPDTMHARLRLSAERLT [D21E]: the protein stability index came out at 2.53.

For YARTPTLDPDTMHARLRLSAYRLT [D21Y], the protein stability index was 1.6.

For YARTPTLDPDTMHARLRLSALRLT [D21L], the protein stability index is 1.8.

As to YARTPTLDPDTMHARLRLSASRLT [D21S], the protein stability index was found to be 3.05.

Take YARTPTLDPDTLHARLRLSADRLT [M12L]: the protein stability index amounted to 2.43.

Consider YARTPTLDPDTFHARLRLSADRLT [M12F], for which the protein stability index amounted to 2.01.

As to YARTPTLDPDTHHARLRLSADRLT [M12H], the protein stability index worked out at 3.13.

Turning to YARTPTLDPDTVHARLRLSADRLT [M12V], the protein stability index turned out to be 2.06.

For YARTPTLDPDTSHARLRLSADRLT [M12S], the protein stability index worked out at 3.21.

For the variant YARTPTLDPDTPHARLRLSADRLT [M12P], the protein stability index came out at 3.2.

On to YARTPTLDPDTYHARLRLSADRLT [M12Y], for which the protein stability index came out at 2.01.

Turning to YARTPTLDPDTDHARLRLSADRLT [M12D], the protein stability index is 3.94.

With YARTPTLDPDTCHARLRLSADRLT [M12C], the protein stability index came to 2.34.

Consider YARTPTLDPDTRHARLRLSADRLT [M12R], for which the protein stability index was 3.07.

As for YARTPTLDPDTGHARLRLSADRLT [M12G], the protein stability index was 2.89.

As for YARTPTLDPDTQHARLRLSADRLT [M12Q], the protein stability index came to 2.68.

For YARTPTLDPDTKHARLRLSADRLT [M12K], the protein stability index stood at 2.72.

YARTPTLDPDTNHARLRLSADRLT [M12N]: the protein stability index came out at 3.63.

Turning to YARTPTLDPDTEHARLRLSADRLT [M12E], the protein stability index amounted to 3.6.

In the case of YARTPTLDPDTIHARLRLSADRLT [M12I], the protein stability index worked out at 2.62.

Consider YARTPTLDPDTTHARLRLSADRLT [M12T], for which the protein stability index is 2.74.

Consider YARTPTLDPDTAHARLRLSADRLT [M12A], for which the protein stability index is 2.56.

In the case of YARTPTLDPDWMHARLRLSADRLT [T11W], the protein stability index was determined as 2.15.

In the case of YARTPTLDPDYMHARLRLSADRLT [T11Y], the protein stability index amounted to 2.9.

As to YARTPTLDPDTMHARLRLIADRLT [S19I], the protein stability index came to 2.79.

For YARTPTLDPDTMHARLRLWADRLT [S19W], the protein stability index worked out at 1.77.

For YARTPTLDPDTMHARLRLLADRLT [S19L], the protein stability index amounted to 2.33.

Take YARTPTLDPDTMHARLRLAADRLT [S19A]: the protein stability index was determined as 2.5.

As for YARTPTLDPDTMHARLRLTADRLT [S19T], the protein stability index was determined as 2.77.

As to YARTPTLDPDTMHARLRLMADRLT [S19M], the protein stability index was determined as 2.06.

For YARTPTLDPDTMHARLRLVADRLT [S19V], the protein stability index is 3.62.

Consider YARTPTLDPDTMHARLRLGADRLT [S19G], for which the protein stability index came out at 2.21.

Take YARTPTLDPDTMHARLRLFADRLT [S19F]: the protein stability index stood at 1.99.

For the variant YARTPTLDPDTMHARLRLKADRLT [S19K], the protein stability index was determined as 2.29.

YARTPTLDPDTMHARLRLQADRLT [S19Q]: the protein stability index amounted to 2.72.

For YARTPTLDPDTMHARLRLNADRLT [S19N], the protein stability index came to 3.01.

For the variant YARTPTLDPDTMHARLRLRADRLT [S19R], the protein stability index worked out at 2.88.

Regarding YARTPTLDPDTMHARLRLCADRLT [S19C], the protein stability index was found to be 2.42.

As for YARTPTLDPDTMHARLRLHADRLT [S19H], the protein stability index came to 2.26.

Take YARTPTLDPDTMHARLRLDADRLT [S19D]: the protein stability index is 2.59.

For YARTPTLDPDTMHARLRLEADRLT [S19E], the protein stability index turned out to be 2.93.

For YARTPTLDPDTMHARLRLPADRLT [S19P], the protein stability index turned out to be 3.06.

As for YARTPTLDPDTMHARLRLYADRLT [S19Y], the protein stability index stood at 1.89.

For the variant YARTPTLDPDTMHARLYLSADRLT [R17Y], the protein stability index worked out at 2.27.

Turning to YARTPTLDPDTMHARLLLSADRLT [R17L], the protein stability index turned out to be 2.29.

YARTPTLDPDTMHARLQLSADRLT [R17Q]: the protein stability index is 2.56.

Consider YARTPTLDPDTMHARLKLSADRLT [R17K], for which the protein stability index came to 2.58.

YARTPTLDPDTMHARLFLSADRLT [R17F]: the protein stability index came out at 2.02.

YARTPTLDPDTMHARLELSADRLT [R17E]: the protein stability index amounted to 3.04.

Take YARTPTLDPDTMHARLILSADRLT [R17I]: the protein stability index stood at 2.81.

Take YARTPTLDPDTMHARLALSADRLT [R17A]: the protein stability index is 2.89.

YARTPTLDPDTMHARLHLSADRLT [R17H]: the protein stability index came to 2.73.

Regarding YARTPTLDPDTMHARLNLSADRLT [R17N], the protein stability index is 3.2.

For YARTPTLDPDTMHARLMLSADRLT [R17M], the protein stability index worked out at 2.42.

Turning to YARTPTLDPDTMHARLPLSADRLT [R17P], the protein stability index is 2.84.

Regarding YARTPTLDPDTMHARLTLSADRLT [R17T], the protein stability index was 2.91.

With YARTPTLDPDTMHARLSLSADRLT [R17S], the protein stability index is 3.01.

Turning to YARTPTLDPDTMHARLGLSADRLT [R17G], the protein stability index is 3.01.

As for YARTPTLDPDTMHARLVLSADRLT [R17V], the protein stability index is 2.31.

Regarding YARTPTLDPDTMHARLDLSADRLT [R17D], the protein stability index was 3.18.

On to YARTPTLDPDTMHARLCLSADRLT [R17C], for which the protein stability index turned out to be 2.25.

As for YARTPTLDPDTMHARLWLSADRLT [R17W], the protein stability index is 1.42.
